Assay results: patent US20260055398A1, “IMPROVED POLYMER DEGRADING ENZYMES” (CAMBRIDGE ENTERPRISE LIMITED, priority 2022, published 2026)

Experiments:
[1] = Light scattering of microdroplets with enzyme and PET nanoparticles; type: biochemical; settings: 600 nM enzyme co-encapsulated with PET nanoparticles, versus buffer control
Procedure: (A) As described in FIG. 1, for the screening of metagenomic libraries for esterase activity isolated environmental DNA (eDNA) was cloned into plasmids. After the transformation of bacterial cells, single ones were co-encapsulated in microdroplets with lysis agent and the fluorescein dihexanoate substrate. After an off-chip incubation, the droplets were reinjected into the FADS sorting device and positive hits selected. After DNA recovery the re-screening and sequencing lead to a novel esterase showing promiscuous activity on PET. This enzyme was used to generate a sequence network together with known PETases. CI5En2 was identified in of the clusters as a novel PET hydrolase. This enzyme was subjected to a directed evolution campaign. Single bacterial cells were encapsulated in microdroplets together with lysis agent and PET nanoparticles serving as the substrate of the assay. Droplets were incubated in droplet chambers and reinjected into the sorting module. The SADS module relies on fiber optics integrated into a chip at a 90° angle. Schematic picture showing the main principle of the assay. […] The dielectrophoretic sorting of “positive” droplets is triggered when the measured value is within a user-defined threshold. (C) Histogram of the detected light scattering for co-encapsulated CI5En2 (600 nM) or a buffer control and PET nanoparticles. […]

[2] = Enzymatic degradation of PET (nanoparticles, film), HPLC of released TPA and MHET; type: biochemical
Excerpt: (A) Sequence network of currently known PETases and a novel esterase metagenomic-derived, RR11O2. […] Grey nodes represent sequences extracted from MGnify and NCBI. Red node represents RR11O2, blue nodes represent known PETases, green and orange nodes represent reported cutinases and esterases showing PET activity, respectively, and light blue nodes represent described polyester degrading enzymes in the literature. To putatively characterise sequence clusters, the identification of PETases, cutinases, esterases and RR11O2 in the network helped to define the potential clusters. The cluster of RR11O2, CI5En2 and PETase are written in grey. (B) PET hydrolases catalyze the depolymerization of poly(ethylene terephthalate) (PET) to bis(2-hydroxyethyl) terephthalate (BHET), mono(2-hydroxyethyl)-terephthalic (MHET) or terephthalic acid (TPA) and ethylene glycol (EG). During characterizations via high-performance liquid chromatography (HPLC) MHET and TPA have been identified as main products. […] Absorbance at 250 nm was monitored.
(A) Enrichment of variants with higher activity compared to wildtype after sorting the ep-PCR library of CI5En2. […] Amount of the released monomers TPA and MHET was determined via HPLC and corresponding standard curves for TPA and MHET. […]
HPLC analysis of the products released after one week incubation at 30° C. using 6 μM pExp-bla-CI5En2-WT. Absorbance at 250 nm was monitored which detects released TPA and MHET.
To detect the release of TPA, MHET and BHET in the presence of various enzymes, aliquots were taken from reaction mixtures, turnover was stopped by addition of an equal volume of methanol containing 0.5% formic acid, centrifuged (16,100×g, 15 min) and analysed by HPLC (1260 Infinity II, Agilent; Nucleodur C18 analytical EC standard column (5 μm, 4×125 mm, Macherey-Nagel, Germany). As the mobile phase mixtures of buffer A (0.1% formic acid in distilled water) and buffer C (distilled water), as well as buffer D (acetonitrile) were used at a flow rate of 1 mL/min. Buffer A was kept at 20% for the whole run. […]

B1: CI5En2: novel PET hydrolase identified from a sequence network cluster; amino acid SEQ ID NO. 2 (protein)
chain: MADYAKGPAPTVALLTAPAGPYQTATYKIAAADAKAFNYGGATVHYPVAKAPGETFGVVVMVPGFLAFQAVYDWLVSRVASHGFVVVNMDTVGRGDYPDERAEQAAGALRHVVSLAQAGTAPYAPVADTSRRAVMGNSMGGGASLSAAVVDPTLKAVVALQPWHTTKSFTGVASPTLVVACEKDSIAPNKSHSDVFYNSLSAALPRAEIEMRGAGHLCATFLATAAQKTTMAKSSVAWLKRFLDNDMRYDAMVKGGIDQGEFSRFVV
modifications: C15EN2
[1]
  detected light scattering signal of droplets: decreases over time
[2]; amorphous and crystalline PET NPs
  activity against PET nanoparticles with different crystallinity: showed activity
[2]; at 30° C.
  PET degrading activity compared with IsPETase and LCC: activity comparable to IsPETase and higher than LCC
